From patent US20210206850A1 (ACCURUS BIOSCIENCES, published 2021) come the findings set out here.

For test [1], the target named is T1, human CD47 (full length) expressed on cells (human, UniProt Q08722 19-323).
T1 construct: whole, on cells; also called human CD47/CHO cells; CHO/CD47 cells
In words: FACS ligand blocking on CD47-CHO cells; blocked ligand FITC human SIRPa huFc at 5 ug/ml. How it is done: The cells were then washed 3 times with the FACS buffer and the mean florescence intensities (MFI) of FITC were evaluated by FACS Caliber.

The target in test [2] is T2, human CD47ECD His tagged protein (human, UniProt Q08722 19-139, limits assumed).
T2 construct: extracellular domain; also called HuCD47ECD 8xHis; monovalent CD47ECD His tagged protein
T2 sequence (Q08722 19-139 limits assumed): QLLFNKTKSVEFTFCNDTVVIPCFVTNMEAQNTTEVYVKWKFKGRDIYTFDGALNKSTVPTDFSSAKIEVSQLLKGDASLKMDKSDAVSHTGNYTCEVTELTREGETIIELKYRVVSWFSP
In words: ELISA ligand blocking, plate coated with human CD47 ECD His tagged protein at 1 ug/ml; blocked ligand human SIRPaECD muFc at 1 ug/ml, anti-mouse IgG-HRP. Here is the method: Briefly, microtiter plates were coated with human CD47ECD His tagged protein at 1 μg/ml in PBS, 100 μl well at 4° C. overnight, then blocked with 100 μl/well of 2% BSA. […] The plates were washed with PBS/Tween and then incubated with anti-mouse IgG-HRP for 1 hour at 37° C. After washing, the plates were developed with TMB substrate and analyzed by spectrophotometer at OD 450 nm.
On the technique in general: In an ELISA, binding on a coated surface is turned into a signal by an enzyme label.

In test [3] the target is T3, human CD47ECD mouse Fc protein (human, UniProt Q08722 19-139, limits assumed).
T3 construct: extracellular domain; also called HuCD47ECD muFc; bivalent CD47ECD muFc protein; not shown: mouse Fc
T3 sequence (Q08722 19-139 limits assumed): as above
In words: SPR (Biacore 3000); antibody captured on anti-human Fc chip, bivalent HuCD47ECD muFc injected. Here is the method: (§1) The binding affinities of anti-human CD47 mouse/human chimeric antibodies to human CD47 protein were determined with BIACORE™ using a capture method. The anti-human CD47 mouse/human chimeric antibodies were captured using anti-human Fc antibody coated on a CMS chip. Serial dilutions of human CD47ECD mouse Fc protein starting from 400 nM were injected over captured antibody for 1 mins at a flow rate of […]. Alternatively, serial dilutions of human CD47ECD His tagged protein starting from 800 nM were injected over captured antibody for 1 min at a flow rate of […]. The antigens were allowed to dissociate for 900s. All the experiments were carried out on a Biacore 3000. Data analysis was carried out using Biacore 3000 evaluation software.
(In general: In SPR one partner is held on a chip, and binding of the other changes the refractive index at the surface.)

The target of test [4] is T1, human CD47 (full length) expressed on …. In words: FACS ligand blocking on CD47-CHO cells; blocked ligand FITC human SIRPa huFc at 4 ug/ml. How it is done: To evaluate the blocking effect of anti-human CD47 mouse/human chimeric antibodies to human full length CD47 expressed on CHO cells, the FACS-based ligand blocking assay was used. CD47-CHO cells were first incubated with 3 fold serially diluted mouse/human chimeric mAbs starting at 100 μg/ml on ice for 30 min. […] The cells were then washed 3 times with the FACS buffer and the mean florescence intensities (MFI) of FITC were evaluated by FACS Caliber. […] AB6.12 is a humanized version of anti-CD47 antibody 2A1 from Celgene and was used as a reference antibody in the assay.

The target in test [5] is T3, human CD47ECD mouse Fc protein. In words: SPR (Biacore 3000); antibody captured on anti-human Fc chip, bivalent HuCD47ECD muFc injected; column Affinity (nM). How it is done:
as §1

Test [6] addresses T2, human CD47ECD His tagged protein. In words: SPR (Biacore 3000); antibody captured on anti-human Fc chip, monovalent HuCD47ECD 8xHis injected. How it is done:
as §1

Test [7] shares this target. In words: SPR (Biacore 3000); antibody captured on anti-human Fc chip, monovalent HuCD47ECD 8xHis injected; column Affinity (nM). How it is done: as §1

T1 sequence (Q08722 19-323): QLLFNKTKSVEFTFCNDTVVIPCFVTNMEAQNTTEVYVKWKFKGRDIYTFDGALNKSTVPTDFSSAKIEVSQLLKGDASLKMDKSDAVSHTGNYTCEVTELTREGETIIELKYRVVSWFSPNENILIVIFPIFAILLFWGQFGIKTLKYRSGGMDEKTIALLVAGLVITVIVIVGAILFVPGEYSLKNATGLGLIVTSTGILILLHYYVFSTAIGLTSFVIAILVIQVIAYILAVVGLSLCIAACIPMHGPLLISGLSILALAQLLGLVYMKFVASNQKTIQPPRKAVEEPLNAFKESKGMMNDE

B1: HuD36S4 H2/L1 humanized anti-CD47 antibody (antibody, V domains shown)
VH: EVQLVESGGGLVQPGGSLRLSCAASGFTFSRYWMNWVRQAPGKGLEWVGQIRLKSDNYETHYAESVKGRFTISRDDSKNSLYLQMNSLKTEDTAVYYCIEEGGYYVPFAYWGQGTLVTVSS
VL: DIVMTQSPDSLAVSLGERATINCKSSQSLFKSRTRKNYLAWYQQKPGQPPKLLIYWASIRESGVPDRFSGSGSGTDFTLTISSLQAEDVAVYYCKQSYYLLTFGGGTKVEIK
For orientation: IC50 means the concentration at which inhibition is half-maximal. High values mean lower potency, low ones higher potency. With B1, the IC50 in test [1] was 1.9 µg/mL; in test [2] it was 0.09 µg/mL.

B2: HuD36S4 H2/L2 humanized anti-CD47 antibody (antibody, V domains shown)
VH: EVQLVESGGGLVQPGGSLRLSCAASGFTFSRYWMNWVRQAPGKGLEWVGQIRLKSDNYETHYAESVKGRFTISRDDSKNSLYLQMNSLKTEDTAVYYCIEEGGYYVPFAYWGQGTLVTVSS
VL: DIVMTQTPLSLPVTPGEPASISCKSSQSLFKSRTRKNYLAWYLQKPGQSPQLLIYWASIRESGVPDRFSGSGSGTDFTLKISRVEAEDVGVYYCKQSYYLLTFGGGTKVEIK
On to B2, for which the figures for the half-maximal inhibitory concentration (IC50) in test [1] and in test [2] were 3.6 µg/mL and 0.11 µg/mL, respectively.

B3: HuD36S4 H3/L1 humanized anti-CD47 antibody (antibody, V domains shown)
VH: EVQLVESGGGLVQPGGSLRLSCAASGFTFSRYWMNWVRQAPGKGLEWVAQIRLKSDNYETHYAESVKGRFTISRDDSKSSLYLQMNSLKTEDTAVYYCIEEGGYYVPFAYWGQGTLVTVSS
VL: DIVMTQSPDSLAVSLGERATINCKSSQSLFKSRTRKNYLAWYQQKPGQPPKLLIYWASIRESGVPDRFSGSGSGTDFTLTISSLQAEDVAVYYCKQSYYLLTFGGGTKVEIK
On to B3, for which the IC50 was 4.4 µg/mL in test [1] and 0.17 µg/mL in test [2].

B4: HuD36S4 H1/L1 humanized anti-CD47 antibody (antibody, V domains shown)
VH: EVQLVESGGGLVQPGGSLRLSCAASGFTFSRYWMNWVRQAPGKGLEWVGQIRLKSDNYETHYAESVKGRFTISRDDSKNSLYLQMNSLKTEDTAVYYCAREGGYYVPFAYWGQGTLVTVSS
VL: DIVMTQSPDSLAVSLGERATINCKSSQSLFKSRTRKNYLAWYQQKPGQPPKLLIYWASIRESGVPDRFSGSGSGTDFTLTISSLQAEDVAVYYCKQSYYLLTFGGGTKVEIK
For the molecule B4, the IC50 turned out to be 7.3 µg/mL in test [1] and 2.3 µg/mL in test [2].

B5: HuD36S4 H1/L2 humanized anti-CD47 antibody (antibody, V domains shown)
VH: EVQLVESGGGLVQPGGSLRLSCAASGFTFSRYWMNWVRQAPGKGLEWVGQIRLKSDNYETHYAESVKGRFTISRDDSKNSLYLQMNSLKTEDTAVYYCAREGGYYVPFAYWGQGTLVTVSS
VL: DIVMTQTPLSLPVTPGEPASISCKSSQSLFKSRTRKNYLAWYLQKPGQSPQLLIYWASIRESGVPDRFSGSGSGTDFTLKISRVEAEDVGVYYCKQSYYLLTFGGGTKVEIK
Take B5: the IC50 in test [1] was found to be 13 µg/mL; in test [2], 2.76 µg/mL.

B6: HuD36S4 H3/L2 humanized anti-CD47 antibody (antibody, V domains shown)
VH: EVQLVESGGGLVQPGGSLRLSCAASGFTFSRYWMNWVRQAPGKGLEWVAQIRLKSDNYETHYAESVKGRFTISRDDSKSSLYLQMNSLKTEDTAVYYCIEEGGYYVPFAYWGQGTLVTVSS
VL: DIVMTQTPLSLPVTPGEPASISCKSSQSLFKSRTRKNYLAWYLQKPGQSPQLLIYWASIRESGVPDRFSGSGSGTDFTLKISRVEAEDVGVYYCKQSYYLLTFGGGTKVEIK
With B6, the IC50 in test [1] was found to be 2.5 µg/mL; in test [2] it was 0.1 µg/mL.

B7: D28S1 mouse/human chimeric anti-human CD47 antibody (antibody, V domains shown)
VH: EVQLVESGGDLVKPGGSLKLSCAASGFTFTSYGMSWVRQTPDKRLEWVATINTGGSYTYYPDSVKGRFTISRDNAKNTLYLQMSSLKSEDTAMYYCARHTIKSLMDYWGQGTSVTVSS
VL: ETTVTQSPASLSMAIGEKVTIRCITSTDIDDDMNWYQQKPGEPPKLLISEGNTLRPGVPSRFSSSGYGTDFVFIIENMFSEDVADYYCLQSDNLPYTFGSGTKLEIK
notes: also called chimeric D28S1; D28S1VH/VL
For orientation: koff means a measure of how fast the partners let go of each other. In general, kon refers to a measure of how fast the partners come together. Low values mean slow association, high ones fast association. In test [3], B7 came in with a Kd of 1.38 nM, a koff of 0.000413 s⁻¹ and a kon of 299000 M⁻¹ s⁻¹. The molecule also had an IC50 in test [4] of 12.3 µg/mL. In addition, the Kd in test [5] turned out to be 1.38 nM.

B8: D125S3 mouse/human chimeric anti-human CD47 antibody (antibody, V domains shown)
VH: EVQLVESGGDLVKPGGSLNLSCAASGFTFSDYGMSWVRQTPDMRLEWVATISKYGTYTSYPDSVKGRFTISRSNAKNTLYLQMSSLKSADTALYYCARRFFGNYNYWYFDVWGAGTTVTVSS
VL: DIVLTQSPASLAVSLGQRATFSCRASESVDEFGISYIHWYKKSPGQPPKLLIYRASTLESGISARFSGSGSGTDFTLTINPVETDDVATYYCQQSNQDPLTFGAGTKLELK
notes: also called chimeric D125S3
Consider B8, for which the Kd in test [3] came to 0.346 nM; in test [6], 3.62 nM; in test [5], 0.346 nM; in test [7] it was 3.62 nM. Also, the koff is 7.72e-05 s⁻¹ in test [3] and 0.000511 s⁻¹ in test [6]. The kon in test [3] stood at 223000 M⁻¹ s⁻¹; in test [6], 163000 M⁻¹ s⁻¹. Also, the IC50 in test [4] was 15.4 µg/mL.

B9: D8S1 mouse/human chimeric anti-human CD47 antibody (antibody, V domains shown)
VH: EVQLQQSVAELVRPGASVKLSCTVSGFNIKNTYIYWVKQRPEQGLEWIGRIDPANGNTKDAPKFQGKATMTADTSSNTAYLQLSSLTSEDTAIYYCARGYGSGFAYWGQGTLVTVSA
VL: DIQMTQTTSSLSASLGDRVTISCRASQDISNHLNWYQQKPDGIVKLLIYYTSRLHSGVPSRFSGSGSGTDYSLTISNLEQEDIATYFCQQGSTLPFTFGSGTKLEIK
notes: also called chimeric D8S1
Take B9: the Kd in test [3] was 0.295 nM; in test [6], 3.28 nM; in test [5], 0.295 nM; in test [7], 3.28 nM. Besides, the figures for the koff in test [3] and in test [6] were 4.77e-05 s⁻¹ and 0.00049 s⁻¹, respectively. In addition, the results for the kon in test [3] and in test [6] were 161000 M⁻¹ s⁻¹ and 150000 M⁻¹ s⁻¹, respectively. The IC50 in test [4] came out at 19.4 µg/mL.

B10: D96S1 mouse/human chimeric anti-human CD47 antibody (antibody, V domains shown)
VH: EVQLQQSGAELVKPGASVKLSCTASGFNIKDTYIHWVKQRPEQGLEWIGRIDPANGNIKSDPKFQGKATVTADTSSNTAYLQLSSLTSEDTAVYYCARSYGSSFASWGQGTLVTVSP
VL: DIQMTQTTSSLSASLGDRVTISCRASQDISNHLNWYQQKPDGAVKLLIYYTSRLHSGVPSRFSGSGSGTDYSLTISNLEQEDIATYFCQQGSTFPYTFGGGTKLEIK
notes: also called chimeric D96S1
Take B10: the koff came out at 1.45e-05 s⁻¹ in test [3] and 0.000253 s⁻¹ in test [6]. In addition, the kon came out at 257000 M⁻¹ s⁻¹ in test [3] and 80900 M⁻¹ s⁻¹ in test [6]. Moreover, the values for the Kd in test [6], in test [5] and in test [7] were 3.13 nM, 0.562 nM and 3.13 nM, respectively. The molecule also had an IC50 in test [4] of 11.3 µg/mL.

B11: D41S2 mouse/human chimeric anti-human CD47 antibody (antibody, V domains shown)
VH: EVQLQQSVAELVRPGASVKLSCTPSGFNIKNTYIYWVRQRPEQGLEWIGRIDPANGNTKDAPKFQGKATMTADTSSNTAYLQLSSLTSEDTAIYYCARGYGSGFAYWGQGTLVTVSA
VL: DIQMTQTTSSLSASLGDRVTISCRASQDISNHLNWYQQKPDGTVKLLIYYTSRLHSGVPSRFSGSGSGTDYSLTISNLEQEDIATYFCQQGSTLPFTFGSGTKLEIK
notes: also called chimeric D41S2
As for B11, the Kd in test [3] was 0.228 nM; in test [6], 5.2 nM; in test [5], 0.228 nM; in test [7], 5.2 nM. For the same molecule, the values for the koff in test [3] and in test [6] were 3.34e-05 s⁻¹ and 0.000756 s⁻¹, respectively. Further, the kon was 147000 M⁻¹ s⁻¹ in test [3] and 145000 M⁻¹ s⁻¹ in test [6]. In test [4], this molecule returned an IC50 of 11.6 µg/mL.
